Tests used:
[1] = target: T1, BCMA-Fc蛋白 (human, UniProt Q02223 1-54); assay: SPR, Biacore X100, BCMA-Fc captured by anti-human Fc on CM5, 2A9 as analyte
T1 construct: Captured on a CM5 chip through anti-human Fc antibody for SPR; also called BCMA抗原; not shown: Fc part, captured by anti-human Fc antibody
T1 sequence (looked up): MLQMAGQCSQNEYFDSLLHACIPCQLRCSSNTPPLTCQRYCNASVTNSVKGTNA

[2] = target: T2, NKG2D-Fc蛋白 (UniProt P26718 78-216, limits assumed); assay: SPR, Biacore X100, NKG2D-Fc captured by anti-human Fc on CM5, 2A9-MICA as analyte
T2 construct: Captured on a CM5 chip through anti-human Fc antibody for SPR; not shown: Fc part, captured by anti-human Fc antibody
T2 sequence (looked up): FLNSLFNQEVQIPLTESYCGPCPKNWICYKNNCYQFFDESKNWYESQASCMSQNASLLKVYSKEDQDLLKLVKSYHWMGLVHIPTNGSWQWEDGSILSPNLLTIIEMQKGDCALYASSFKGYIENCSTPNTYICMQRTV

[3] = target: T1, BCMA-Fc蛋白; assay: SPR, Biacore X100, BCMA-Fc captured by anti-human Fc on CM5, 2A9-MICA as analyte

Row | Binder | Kd [1] [nM] | Kd [2] [nM] | Kd [3] [nM]
1 | 抗人BCMA单链抗体2A9 (scFv, Parental scFv from phage display; also called rG7S) scFv: ASMAEVQLQQSGAELVKPGASVKLSCTASGFNIKDTYMHWVKQRPEQGLEWIGRIDPANGNTKYDPKFQGKATITADTSSNTAYLQLSSLTSEDTAVYYCARWVYWGQGTTLTVSTGGGGSDVVMTQSPSSMYASLGERVTITCKASQDINSYLSWFQQKPGKSPKTLIYRANRLVDGVPSRFSGSGSGQDYSLTISSLEYEDMGIYYCLQYDEFPYTFGGGTKLEIKR | 34.6 | – | –
2 | 双特异性抗体2A9-MICA (anti-human BCMA scFv 2A9 fused to human MICA extracellular regions 1-3) (bispecific antibody, also called 抗体融合蛋白2A9-MICA; rG7S-MICA) MAEVQLQQSGAELVKPGASVKLSCTASGFNIKDTYMHWVKQRPEQGLEWIGRIDPANGNTKYDPKFQGKATITADTSSNTAYLQLSSLTSEDTAVYYCARWVYWGQGTTLTVSTGGGGSDVVMTQSPSSMYASLGERVTITCKASQDINSYLSWFQQKPGKSPKTLIYRANRLVDGVPSRFSGSGSGQDYSLTISSLEYEDMGIYYCLQYDEFPYTFGGGTKLEIKRGSGGGGSEPHSLRYNLTVLSWDGSVQSGFLAEVHLDGQPFLRYDRQKCRAKPQGQWAEDVLGNKTWDRETRDLTGNGKDLRMTLAHIKDQKEGLHSLQEIRVCEIHEDNSTRSSQHFYYDGELFLSQNLETEEWTVPQSSRAQTLAMNVRNFLKEDAMKTKTHYHAMHADCLQELRRYLESGVVLRRTVPPMVNVTRSEASEGNITVTCRASSFYPRNIILTWRQDGVSLSHDTQQWGDVLPDGNGTYQTWVATRICRGEEQRFTCYMEHSGNHSTHPVPSGKVLVLQSHW | – | 3470 | 76

Source: patent CN111333732A (UNIV CHINA PHARMA, dated 2020)
